This data set deals with hnRNP A1 tandem RRMs (UP1-like) (UniProt P09651 1-196). The data set can be described thus: fluorescence anisotropy; 35 C; NMR buffer: sodium phosphate pH 6.5 (50 mM for tandem RRMs, 25 mM for single RRMs), 1 mM BME, 50 uM EDTA, no added salt stated; ITC 25 C, NMR 298 K (10% D2O), FA 35 C. The note with it: protein: recombinant; tags: 2xHis6-lipoyl tag removed by TEV; label: 3' fluorescein.
hnRNP A1 tandem RRMs (UP1-like), sequence (P09651 1-196): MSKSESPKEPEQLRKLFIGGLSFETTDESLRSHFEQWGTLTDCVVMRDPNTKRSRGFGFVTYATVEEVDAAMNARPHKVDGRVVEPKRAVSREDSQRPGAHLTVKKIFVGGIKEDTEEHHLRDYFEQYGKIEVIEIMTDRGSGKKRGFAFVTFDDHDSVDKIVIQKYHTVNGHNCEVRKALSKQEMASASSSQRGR

In general, Kd refers to the equilibrium constant for the complex coming apart. For the molecule CAGGGAUUUGGGGAC (ssRNA) [CFTR exon 9 ESS 15-mer ssRNA wt], the equilibrium dissociation constant (Kd) was determined as 99 nM.
CAGGGAUUUCGCGUA (ssRNA) [CFTR exon 9 ESS 15-mer ssRNA mut4]: the Kd was found to be 117 nM.

The values above are taken from article PMC12171016, “hnRNP A1 induces aberrant CFTR exon 9 splicing via a newly discovered ESS element”.
